{"source": "paper PMC10333884", "about": "“Large‐scale phosphomimetic screening identifies phospho‐modulated motif‐based protein interactions” (Molecular Systems Biology, 2023)", "key": {"[1]": {"biological_target": "GGA1 VHS domain (human) (UniProt Q9UJY5)", "sequence (Q9UJY5 17-147)": "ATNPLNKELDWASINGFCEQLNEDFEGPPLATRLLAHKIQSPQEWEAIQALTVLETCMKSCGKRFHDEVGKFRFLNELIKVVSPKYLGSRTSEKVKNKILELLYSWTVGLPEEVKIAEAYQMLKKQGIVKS", "assay": "ITC; iTC200; peptide titrated against the protein domain in approximately 10-fold excess, 16 injections; 50 mM sodium phosphate buffer pH 7.4, 1 mM DTT; constants of single runs and their average"}, "[2]": {"biological_target": "Clathrin N-terminal domain (NTD) (human) (UniProt Q00610)", "sequence (Q00610 1-364)": "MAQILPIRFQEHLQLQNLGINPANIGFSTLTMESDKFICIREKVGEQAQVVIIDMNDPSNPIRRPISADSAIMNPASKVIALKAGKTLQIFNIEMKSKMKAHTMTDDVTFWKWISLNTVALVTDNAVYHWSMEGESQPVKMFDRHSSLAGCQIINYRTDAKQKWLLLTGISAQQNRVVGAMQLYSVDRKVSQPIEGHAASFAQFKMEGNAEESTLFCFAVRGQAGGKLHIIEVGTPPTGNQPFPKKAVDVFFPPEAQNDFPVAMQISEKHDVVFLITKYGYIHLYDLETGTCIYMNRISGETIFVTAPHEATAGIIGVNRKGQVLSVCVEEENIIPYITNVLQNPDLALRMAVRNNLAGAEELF", "assay": "ITC; peptide titrated against protein domain in about 10-fold excess, 16 injections; 50 mM sodium phosphate pH 7.4, 1 mM DTT"}, "[3]": {"biological_target": "Clathrin N-terminal domain (NTD) (human) (UniProt Q00610)", "assay": "fluorescence polarisation; displacement of a FITC-labelled probe peptide (5 nM in the measurement) from the protein domain (1-2 fold over the probe's KD) by a dilution series of unlabelled peptide; room temperature; 50 mM sodium phosphate pH 7.4; KD calculated from the displacement curve; for KPNA4 ARM one probe for each pocket"}, "[4]": {"biological_target": "MAP1LC3B (human) (UniProt Q9GZQ8)", "assay": "fluorescence polarisation; displacement of a FITC-labelled probe peptide (5 nM in the measurement) from the protein domain (1-2 fold over the probe's KD) by a dilution series of unlabelled peptide; room temperature; 50 mM sodium phosphate pH 7.4; KD calculated from the displacement curve; for KPNA4 ARM one probe for each pocket"}, "[5]": {"biological_target": "MAP1LC3A (human)", "assay": "fluorescence polarisation; displacement of a FITC-labelled probe peptide (5 nM in the measurement) from the protein domain (1-2 fold over the probe's KD) by a dilution series of unlabelled peptide; room temperature; 50 mM sodium phosphate pH 7.4; KD calculated from the displacement curve; for KPNA4 ARM one probe for each pocket"}, "[6]": {"biological_target": "14‐3‐3 theta (UniProt P27348)", "assay": "FP displacement of FITC probe peptide", "settings": "reference: unphosphorylated peptide; sites S375"}, "[7]": {"biological_target": "KPNA4 ARM ARM domain (UniProt O00629)", "assay": "FP displacement, major-pocket FITC probe", "settings": "reference: unphosphorylated peptide"}, "[8]": {"biological_target": "KPNA4 ARM ARM domain (UniProt O00629)", "assay": "FP displacement, minor-pocket FITC probe", "settings": "reference: unphosphorylated peptide"}, "[9]": {"biological_target": "GABARAPL2 (human) (UniProt P60520)", "sequence (P60520 whole entry, the tested form may be a part)": "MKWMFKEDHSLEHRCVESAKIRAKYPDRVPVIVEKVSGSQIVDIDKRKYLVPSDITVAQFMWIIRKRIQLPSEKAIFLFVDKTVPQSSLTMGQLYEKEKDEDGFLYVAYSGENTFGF", "assay": "fluorescence polarisation"}, "[10]": {"biological_target": "GABARAPL2 (human) (UniProt P60520)", "assay": "fluorescence polarisation; displacement of a FITC-labelled probe peptide (5 nM in the measurement) from the protein domain (1-2 fold over the probe's KD) by a dilution series of unlabelled peptide; room temperature; 50 mM sodium phosphate pH 7.4; KD calculated from the displacement curve; for KPNA4 ARM one probe for each pocket"}, "[11]": {"biological_target": "Clathrin N-terminal domain (NTD) (human) (UniProt Q00610)", "assay": "fluorescence polarisation"}, "[12]": {"biological_target": "MAP1LC3B ATG8 (human)", "assay": "ITC; iTC200; peptide titrated against the protein domain in approximately 10-fold excess, 16 injections; 50 mM sodium phosphate buffer pH 7.4, 1 mM DTT; constants of single runs and their average"}, "[13]": {"biological_target": "Clathrin N-terminal domain (NTD) (human) (UniProt Q00610)", "assay": "ITC; iTC200; peptide titrated against the protein domain in approximately 10-fold excess, 16 injections; 50 mM sodium phosphate buffer pH 7.4, 1 mM DTT; constants of single runs and their average"}, "[14]": {"biological_target": "Clathrin N-terminal domain (NTD) (human) (UniProt Q00610)", "assay": "fluorescence polarisation; displacement of a FITC-labelled probe peptide (5 nM in the measurement) from the protein domain (1-2 fold over the probe's KD) by a dilution series of unlabelled peptide; room temperature; 50 mM sodium phosphate pH 7.4; KD calculated from the displacement curve; for KPNA4 ARM one probe for each pocket", "remark": "listed apart in the source"}}, "note": "Several values for one entry are separate records, joined by “and”; a condition that tells them apart may be missing. Equal entries are not always repeated.", "data": [{"substance": "RNF11 6-21 peptide, wild-type (from UniProt Q9Y3C5 6-21)", "values": [{"measurement": "stoichiometry N", "setting": "[1]", "result": 0.8}]}, {"substance": "RNF11 6-21 peptide, phosphomimetic (from UniProt Q9Y3C5 6-21)", "values": [{"measurement": "stoichiometry N", "setting": "[1]", "result": "0.97 and 0.905"}]}, {"substance": "pS839 HURP_(832–846) (from UniProt Q15398 832-846) (peptide)", "values": [{"measurement": "Kd", "setting": "[2]", "result": 5, "unit": "µM"}, {"measurement": "Kd", "setting": "[3]", "result": "< 3", "unit": "µM"}]}, {"substance": "TPD52L2_(91–106), phosphomimetic (E) (from UniProt O43399 91-106) (peptide)", "values": [{"measurement": "Kd", "setting": "[4]", "result": 225, "unit": "µM"}, {"measurement": "Kd", "setting": "[5]", "result": 78, "unit": "µM"}]}, {"substance": "TOM1 366-382 (from UniProt O60784) pS375 peptide", "values": [{"measurement": "binding against the reference", "setting": "[6]", "result": "gained"}]}, {"substance": "RANBP3 114-129 (from UniProt Q9H6Z4) pS125 peptide (p+6)", "values": [{"measurement": "KD", "setting": "[7]; sites S125", "result": "same; reference 0.15 ± 0.01"}, {"measurement": "KD", "setting": "[8]; sites S125", "result": "stronger; reference 68 ± 4"}]}, {"substance": "ATG4C_(444–458), phosphomimetic (E) (from UniProt Q96DT6 444-458) (peptide)", "values": [{"measurement": "Kd", "setting": "[9]", "result": 1.8, "unit": "µM"}, {"measurement": "Kd", "setting": "[4]", "result": 4.6, "unit": "µM"}, {"measurement": "Kd", "setting": "[5]", "result": 3.1, "unit": "µM"}]}, {"substance": "RNF11 6-21 peptide, phosphorylated (from UniProt Q9Y3C5 6-21)", "values": [{"measurement": "stoichiometry N", "setting": "[1]", "result": "0.722 and 0.731"}]}, {"substance": "TBK1_(164–179), wild‐type (from UniProt Q9UHD2 164-179) (peptide)", "values": [{"measurement": "Kd", "setting": "[4]", "result": 10.5, "unit": "µM"}, {"measurement": "Kd", "setting": "[10]", "result": 19, "unit": "µM"}]}, {"substance": "HURP_(832–846), phosphomimetic (E) (from UniProt Q15398 832-846) (peptide)", "values": [{"measurement": "Kd", "setting": "[11]", "result": 23, "unit": "µM"}]}, {"substance": "TBK1 164-179 peptide, phosphorylated (from UniProt Q9UHD2 164-179)", "values": [{"measurement": "stoichiometry N", "setting": "[12]", "result": "1.09 and 1.17 and 0.932"}]}, {"substance": "HURP 832-846 peptide, phosphomimetic (S839 to glutamate) (from UniProt Q15398 832-846)", "values": [{"measurement": "stoichiometry N", "setting": "[13]", "result": "0.552 and 0.557 and 0.458"}]}, {"substance": "ATG4C_(444–458), wild‐type (from UniProt Q96DT6 444-458) (peptide)", "values": [{"measurement": "Kd", "setting": "[9]", "result": 0.8, "unit": "µM"}, {"measurement": "Kd", "setting": "[4]", "result": 7.1, "unit": "µM"}, {"measurement": "Kd", "setting": "[5]", "result": 5.2, "unit": "µM"}]}, {"substance": "TBK1_(164–179), phosphomimetic (E) (from UniProt Q9UHD2 164-179) (peptide)", "values": [{"measurement": "Kd", "setting": "[4]", "result": 2.1, "unit": "µM"}, {"measurement": "Kd", "setting": "[10]", "result": 12.4, "unit": "µM"}]}, {"substance": "TBK1_(164–179), phosphorylated (pS) (from UniProt Q9UHD2 164-179) (peptide)", "values": [{"measurement": "Kd", "setting": "[10]", "result": 2.8, "unit": "µM"}]}, {"substance": "HURP_(832–846), wild‐type (from UniProt Q15398 832-846) (peptide)", "values": [{"measurement": "Kd", "setting": "[2]", "result": 250, "unit": "µM"}, {"measurement": "Kd", "setting": "[3]", "result": 134, "unit": "µM"}, {"measurement": "Kd", "setting": "[14]", "result": 150, "unit": "µM"}]}, {"substance": "SQSTM1 258-272 (from UniProt Q13501) phosphorylated peptide", "values": [{"measurement": "KD", "setting": "[7]; sites S266", "result": "weaker; reference 0.24 ± 0.04"}, {"measurement": "KD", "setting": "[8]; sites S266", "result": "weaker; reference 14.0 ± 0.7"}]}]}
